{"source": "the DeepSol protein solubility set", "data": [{"assay": "soluble on expression in E. coli; label from the status in PepcDB or PDB records", "values": [{"sequence": "MGSDKIHHHHHHMPKSVRAENISRILKRIMKSPVSRVELAEELGLTKTTVGEIAKIFLEKGIVVEEKDSPKGVGRPTKSLKISPNCAYVLGIEVTRDEIAACLIDASMNILAHEAHPLPSQSDREETLNVMYRIIDRAKDMMEKLGSKLSALTVAAPGPIDTERGIIIDPRNFPLSQIPLANLLKEKYGIEVWVENDADMGAVGEKWYTKRDDSFAWILTGKGIGAGIIIDGELYRGENGYAGEIGYTRVFNGNEYVFLEDVCNENVVLKHVLSMGFSSLAEARDSGDVRVKEYFDDIARYFSIGLLNLIHLFGISKIVIGGFFKELGENFLKKIKIEVETHLLYKHSVDMSFSKVQEPVIAFGAAVHALENYLERVTTS", "soluble on expression in E. coli": "soluble"}, {"sequence": "MGGLVSRCEAFSSSAEQKLSQGRNTSMDEKTTQTKPSRRPWFWKRIERTELPNPGSYEDINQEASAVLRPNLFDGFRFDFNYPLSAMFSMGHSIEMGSLQKPPGYAFSANYLSNHLVMLSRVDLSGHVNGRVFINHSPFLTSKIVAETSSQPNESKATWDLDYRGSDFCGQLKFGNMGIVALSYLQSVTPNLSLGGEGFYQGATGFSAITAAGRYVTHDGVATCTIASFGPLVASYCHRVNPRVTLATEFFWDLRSRDSLVTIGYKFDLRQATVTGQIDTNGRVAALLEEKINPGLSFLLSGEIDHSRQEYKFGFGVTIGQ", "soluble on expression in E. coli": "soluble"}, {"sequence": "MVRVRPSCQVAQSDCGLACVHMLIQSFGISASLRKMRVTYAPGRDGLSLRALTQILSDFGLNSKVVKCSYSNLSRVPLPAIIAWEPAHYVVLEKRLGDSWRIVDPSSGRRWCSKKEIEANFRSFCVTGARGNTKVSEGQVSDDPSWKSLAVLLAGK", "soluble on expression in E. coli": "not soluble"}, {"sequence": "MASDNLSAVLYKQNDLRLEQRPIPEPKEDEVLLQMAYVGICGSDVHYYEHGRIADFIVKDPMVIGHEASGTVVKVGKNVKHLKKGDRVAVEPGVPCRRCQFCKEGKYNLCPDLTFCATPPDDGNLARYYVHAADFCHKLPDNVSLEEGALLEPLSVGVHACRRAGVQLGTTVLVIGAGPIGLVSVLAAKAYGAFVVCTARSPRRLEVAKNCGADVTLVVDPAKEEESSIIERIRSAIGDLPNVTIDCSGNEKCITIGINITRTGGTLMLVGMGSQMVTVPLVNACAREIDIKSVFRYCNDYPIALEMVASGRCNVKQLVTHSFKLEQTVDAFEAARKKADNTIKVMISCRQG", "soluble on expression in E. coli": "soluble"}, {"sequence": "VKSYKSGASAIDVIVTTPDIARINAIAAMKKGSALTTEETMQVPAAGWPVMIFSHGITSYKETVLAISGTLASQGIATISIDHPYHGARGIDFNADGVYEISATSSLSDSDPAYVNANVTSYMNLASLLTARDNVRQSEVDLLALRLSLNSVNLAGQLDATKVSFLGHSLGAITGIPVMALANSGI", "soluble on expression in E. coli": "not soluble"}, {"sequence": "MGGLFVTPAKAVKTTNYAEEIAALQPGTTPEEIMKSASQIAKQQHVKQDVILKQFYKEITADKAEGDRLAKESGMSIMGGSSGTKKLPTSAKGNIYYTNSYTAYYNHGHVGMYSAADKIVESVPSDGVRQIAYNARDVEDNSIVQTVSVSSSQKTAAADWAVSKVGDPYSFNFVNNRNTGHDGAKNCSKLLWSAFLLKAGIDIDSNGGLGVYPRDITSSSYTTTIMTIYLEHHHHHH", "soluble on expression in E. coli": "not soluble"}, {"sequence": "MAHHHHHHMPLRACVSRTPAQARLVEVVSDYVQHLMDMQASRCAETSLDGHVVPPPNAKYPSHDFFCATHAPAISVKKYTDRLVTYMHCSPEAFVFAVAYLRRLVLSGFPMHLQSIHRLLLTAVLVALKCRDDVYYHMSFYAEVGGVTSKDLRIMEIRFLSDLIRFEGEVSLADYHVVMVDMMRVTERRMITNISGKTEMCNRCGMSAGAFTTSIPGDLGCLHCKGDAFAHSWTSECELFWGPLNSAFSLPSGEV", "soluble on expression in E. coli": "not soluble"}, {"sequence": "MAHHHHHHMQQENRHLSSADLFKKFTLQNVAQIANISNKEQSQIRGELTEQYPLLADFWEDIMPKKPDIMLVRCHDQVHCVTLVSSQPEVLFFRHHNSPYIPHLKLLHKYPFILPRQQVDIGGCKYVVSGANVMCPGLTSEGGYITPGLAAGAIVAIHVEQKEHAIAVGRMLMSSEEIERVNNGPGIENIHHLGDGLWMNRVLSSSHIGAR", "soluble on expression in E. coli": "not soluble"}, {"sequence": "MVTLCHVFGVHRSSYRYWKNRPEKPDGRRAVLRSQVLELHGISHGSAGARSIATMATRRGYQMGRWLAGRLMKELGLVSCQQPTHRYKRGGHEHVAIPNYLERQFAVTEPNQVWCGDVTYIWTGKRWAYLAVVLDLFARKPVGWAMSFSPDSRLTMKALEMAWETRGKPGGVMFHSDQGSHYTSRQFRQLLWRYQIRQSMSRRGNCWDNSPMERFFRSLKNEWMPVVGYVSFSKAAHAITDYIVGYYSALRPHEYNGGLPPNESENRYWKNSNSVASFC", "soluble on expression in E. coli": "not soluble"}, {"sequence": "MKRCLAILAFAALLFPALPAYSAPARQPSSNTPPPDIVMHPEYARTIGRLAYVWGWPMVNMLNRNARITKAPHPGLLGGILPAAPRGQVGMLHDYILPAETFVTCPNQDVVYGLGFFSLDTEPVIAQVPDFGDRFWVYALYDHRTNQFGELGKPYRSKPGFYLLVGPNWKGQKPAGVQAIIRSPTALANAIPRIFMDDTDEDRQAIQKKINQVVFYPLKDFDGKMKSLDWQSTADIPNPGADSANAGETRWVVPEEFFNQFGQVLDMVPPLPGEEAMYVQFRSMMDAAAKDPAIKNALVEVAKETEEQVIAPFFQWKHNGKPAGNNWNRSVNNAQTGLDYFNRTGTAKSNMFDNRPNETQYFYTDFDSTGAVLDGGKRYEITFASGQLPPVKGFWSLTLYNKHHLFSPNDLNRYSLGTKNKNLVRGPDGSLTIHVGPTSPGKDKEANWLPSPREPISLYIRAYWGEQAILDGTWKPPAVKKIELEHHHHHH", "soluble on expression in E. coli": "not soluble"}, {"sequence": "MNDDKDVVIDQIYYISTDPSATTYPTTFSVSLVDNSVAGRPFFYVVGKSTMRVDRNTTLRVEEDSKLVEKYNETYGKKYLPFPEGTYSFSTNEVTINQGDNFSSDTIFISFSNWDKLSKIDKYLLPVSLKAVDDKGAVSMDRNLIYFIADFSTTNTGYNKPAAWKPLDRTDWDVSFSYAYGYDEAQFGGRLAVDGDVSTTWFTWGVVSAGECWWATTLPAPTHLTGFSLTRQTTFGSSYNVREAKVKVKKEGDTEWTEAGLFRFGSFKGNDPQYAVFIPAVENVKEFRIDIVSPADFTGFAELDLYQLEHHHHHH", "soluble on expression in E. coli": "not soluble"}, {"sequence": "MGSDKIHHHHHHMRPLIFAYANAAASIAADSWNLVMGEDNPFCRHEYLLSLEQSLSACDATGWQACHLCVFDASGMGLTQEQNTDGIVSTRDAVHFIDLPLLAVMPLYQKSHSYGEYVFDWAWAQAYEHHGLAYYPKLLNAIPFTPVLGRRIGLSPRLSADEAQQLSALVFTCLNRQLMDAHASISSWHCLFVSPSQQSLFEPPLSVKQQTLQHLPHNPSLRRLSTQFHWYNRGYTSFEAFLAALNSRKRKNIVKERAQLQTHGLRFEFVAGNVITSQQWQRFIECYQLTYLKRSGHRGYLTPVFFQMIAERLAEQIVLLVVSDATGEMIAGALYFTGRNELGQRCLFGRYWGSTLELEGLHFEACYYQGIEYCIAQDIEVFDAGAQGEHKVLRGFEPVAIYSYHNIAHPEFKLAIAHFTEEEAVQMEVYMQQMREVLPYKKAP", "soluble on expression in E. coli": "not soluble"}, {"sequence": "MSLSENTTKVVQLNSHLTAPGQVTDELQSLTRMPAAFVETKDKGKQALRPLLQALFDNIDDALFELADRAEHNAEQNMFFESMREVRIKRRGMELCFGQELDNRFRLLLTDDAPRAKSSADDPRLAVDSLSLIANEELEELVAADTMIIKAEGEFTDSLSQLTTRIDTLVHPLEVTDKTNPFGPTSVCQSFVGVCKTLDMDIRAKLVLFKLFDRYVMNGLGDVYAACNEVLVNNGILPGLAKGRTTAARADSNIQQPPAASGTVDVFAQLQTLLHGLPQHTAGIETSGLVAVGQAPQIPRDTLMTLLQSVQLSLAPQLDQQLQAALQGVGPQQLDIQQSLSNLLSAKLPSKPMSIGQVESDALNLVAMLFQFILDDRNLAAPMKALIARLQIPFIKAAMIDSSFFTKGGHPARRLLNEIASASLGWVAIGIVDRDPLYAKVSSIVTRIQREFDGDSRLFQDVLTDFVAFLDMDKRRIGLVEQRTINAEDGKAKSEQARTAVQTALNERVAGLSLPKVVISLLEQAWSNVLFLIYLKEGDQAENWQEGLNVVDDLLWSVQPMDSADSRHRLVTMVPPLLKNVRAGLTKIGYNPFEMNQLFTDLEVVHLSQLQALNTVKLDMTASEGHHHHHH", "soluble on expression in E. coli": "not soluble"}, {"sequence": "AHHHHHHGSYDELFKKIKEKAKFVDEKLLSLIPEKEPKILYEAARHYPLAGGKRVRPFVVLTATEAVGGEWEKAIYPAVAIELIHNYSLVHDDIMDMDETRRGRPTVHKVWGINMAILAGDLLFSKAFEAISRAEIPPEKKARVLETVVKASNELCEGQAMDLEFEKRDTVTIEEYMRMISGKTGALFDASAKVGGIVGTDNEEYINALSTWGRNVGIAFQIWDDVLDLIADEEKLGKPVGSDIRKGKKTLIVAHFFENADEKDKQKFLKVFGKYAGDVKGEGIIEEDIKAEVMEAIDLLKKYGSIDYAANIAREMVKKANEALKVLPESEARKDLELLARFIVEREY", "soluble on expression in E. coli": "soluble"}, {"sequence": "SKVWKYFGFDTNAEGCILQWKKIYCRICMAQIAYSGNTSNLSYHLEKNHPEEFCEFVKSN", "soluble on expression in E. coli": "soluble"}, {"sequence": "MGSDKIHHHHHHMKMETGKLLMELSNLDGPSGYETNVVSYIKSVIEPFVDEAKTTRHGSLIGYKKGKGIGKLAFFAHVDEIGFVVSKVEGQFARLEPVGGVDPKVVYASKVRIYTKNGIERGVIGMLAPHLQDSESRKKVLTYDEIFVDLSLCERDVRVGDIAVIDQTAFETNGKVVGKALDNRASCGVLVKVLEFLKRYDHPWDVYVVFSVQEETGCLGALTGAYEINPDAAIVMDVTFASEPPFSDHIELGKGPVIGLGPVVDRNLVQKIIEIAKKHNVSLQEEAVGGRSGTETDFVQLVRNGVRTSLISIPLKYMHTPVEMVDPRDVEELARLLSLVAVELEV", "soluble on expression in E. coli": "not soluble"}, {"sequence": "QMTARDVYLPVAAQPSVDTLVGMSQQAEDRGYDRVWLPETWGRDAVTTLTSIAEHTSTVGLGSSILNVYSRSPALLGQTAATLQEVSDGRFRAGVGPSGPIVIEGWHGREFESPLKYTRETVDIMKQVLSGETVDYDGDIFSLSGFRLRCEPPEPAPPVDAGGLGPKSVELAGRFADGWHALMLTADGLRDRLEDFEHGADLGDRDRADQRVTLSLTCCAMDDREQARELARQHVAFYIGGMGTFYRDALARQGYEDTAYEIAEQWGSGNKGAAVDAISDELLDSIAVAGTPEDCRDRIAQFEDIDGVDAINISFPRAAERDTIDTTIDVL", "soluble on expression in E. coli": "not soluble"}, {"sequence": "MRGGPVNSHDVTDEQWEGLAQVVPLRGRDAWPSAVGHRSIPEAQTEARRRFVVLRVNIFADARDVAETLMRGIPVLLDLTSAETEVAKRVLDFSTGVVFGLASGMHRVDRNVFLLTPPGTEVQGLMEGVGVPGILEHHHHHH", "soluble on expression in E. coli": "not soluble"}, {"sequence": "YSFIGSPVFSREFNISEMREYYLSFFEARGHTRINRYPVVARWRDDIYLTIASIADFQPFVTSGQVPPPANPLTISQPCIRLNDLDSVGRSGRHLTNFEMMAHHAFNRRDNEIYWKEHTLELCDELLNSLKVNPLAVTYKEEPWAGGGNAGPCVEVIVHGLELATLVFMDLKTDKKGDIEIKGETYSKMDNYIVDTGYGLERFVWASRGSPTIYDALFPGIVNELMGLAGIEHELNDSEYANI", "soluble on expression in E. coli": "not soluble"}, {"sequence": "ADLGHQTLGSNDGWGAYSTGTTGGSKASSSNVYTVSNRNQLVSALGKETNTTPKIIYIKGTIDMNVDDNLKPLGLNDYKDPEYDLDKYLKAYDPSTWGKKEPSGTQEEARARSQKNQKARVMVDIPANTTIVGSGTNAKVVGGNFQIKSDNVIIRNIEFQDAYDYFPQWDPTAGSSGNWASQYDNITINGGTHIWIDHCTFNDGSRPDSTSPKYYGRKYQHHDGQTDASNGANYITMSYNYYHDHDASSIFGSSDSKTSDDGKLKITLHHNRYKNIVQRAPRVRFGQVHVYNNYYEGSTSSSSYPFSYAWGIGKSSKIYAQNNVIDVPGLSAAKTISVFSGGTALYDSGTLLNGTQINASAANGLSSSVGWTPSLHGSIDASANVKSNVINQAGAGKLN", "soluble on expression in E. coli": "soluble"}]}]}
